According to publication PMC7971329 (Oncoimmunology, 2021):

Molecular target: human interleukin-2 (human, UniProt P60568)
Assay: SEC

Sequence of human interleukin-2 (P60568 21-153): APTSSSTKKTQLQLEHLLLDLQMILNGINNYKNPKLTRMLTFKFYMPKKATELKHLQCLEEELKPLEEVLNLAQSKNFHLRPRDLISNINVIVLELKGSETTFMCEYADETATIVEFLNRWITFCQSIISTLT

- binding result: binds
B1: TCB2-Fab (Fab, V domains shown)
VH: EVQLQQSGAELARPGASVKLSCKASGYTFTTYWIQWVKQRPGQGLEWIGAIYPGDGDTRYIQNFKGKATLTADKSSSTAYMQLSSLASEDSAVYYCARSLATRGFYAMDYWGQGTSVTVSS
VL: DIVMTQSPASLSMAIGEKVTIRCITSTDIDDDMNWYQQKPGEPPKLLISEGNTLRPGVPSRFSSSGYGTDFVFTIENMLSEDVADYYCLQSDNLPYTFGGGTKLEIK
